Source: IntAct's records for PubMed 15086532

Target: gasp1_human GPRASP1 (UniProt Q5JY77)
Sequence (Q5JY77 whole entry): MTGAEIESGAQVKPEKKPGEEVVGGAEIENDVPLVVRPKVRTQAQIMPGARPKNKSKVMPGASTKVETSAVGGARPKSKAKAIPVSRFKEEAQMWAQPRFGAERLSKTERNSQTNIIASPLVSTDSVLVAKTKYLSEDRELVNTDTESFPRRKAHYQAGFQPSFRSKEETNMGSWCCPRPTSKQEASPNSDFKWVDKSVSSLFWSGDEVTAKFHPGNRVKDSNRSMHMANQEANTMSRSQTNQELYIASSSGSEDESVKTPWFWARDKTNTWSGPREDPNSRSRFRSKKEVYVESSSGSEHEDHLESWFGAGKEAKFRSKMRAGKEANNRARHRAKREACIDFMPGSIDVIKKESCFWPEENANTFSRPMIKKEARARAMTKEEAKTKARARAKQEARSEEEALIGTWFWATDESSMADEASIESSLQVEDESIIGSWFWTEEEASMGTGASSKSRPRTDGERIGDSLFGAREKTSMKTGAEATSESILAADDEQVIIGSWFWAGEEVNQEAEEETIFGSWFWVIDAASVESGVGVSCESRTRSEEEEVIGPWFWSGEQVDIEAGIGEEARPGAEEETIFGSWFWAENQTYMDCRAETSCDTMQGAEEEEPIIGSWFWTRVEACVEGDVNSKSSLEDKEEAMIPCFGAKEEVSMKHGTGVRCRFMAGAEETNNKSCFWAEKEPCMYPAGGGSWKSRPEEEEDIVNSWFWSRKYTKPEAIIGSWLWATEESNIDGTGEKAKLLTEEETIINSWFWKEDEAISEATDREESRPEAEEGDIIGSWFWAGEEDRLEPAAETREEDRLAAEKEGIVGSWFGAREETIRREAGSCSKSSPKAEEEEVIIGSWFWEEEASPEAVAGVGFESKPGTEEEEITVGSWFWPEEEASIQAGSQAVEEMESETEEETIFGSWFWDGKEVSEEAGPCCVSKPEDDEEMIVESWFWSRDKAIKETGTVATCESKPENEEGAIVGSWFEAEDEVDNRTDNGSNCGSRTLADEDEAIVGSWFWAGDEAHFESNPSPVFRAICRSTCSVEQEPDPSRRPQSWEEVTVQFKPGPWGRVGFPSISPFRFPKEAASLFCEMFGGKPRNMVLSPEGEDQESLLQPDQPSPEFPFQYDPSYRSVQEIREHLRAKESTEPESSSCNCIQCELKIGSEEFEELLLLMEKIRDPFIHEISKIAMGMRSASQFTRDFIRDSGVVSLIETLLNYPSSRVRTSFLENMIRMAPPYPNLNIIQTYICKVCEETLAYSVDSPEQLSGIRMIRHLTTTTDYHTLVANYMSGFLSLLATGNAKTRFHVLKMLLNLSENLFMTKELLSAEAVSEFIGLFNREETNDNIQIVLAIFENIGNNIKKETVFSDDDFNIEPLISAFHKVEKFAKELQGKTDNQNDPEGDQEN

Sequence of Beta-1 adrenergic receptor (Homo sapiens), P08588 F383A;R384A (P08588 whole entry F383A/R384A): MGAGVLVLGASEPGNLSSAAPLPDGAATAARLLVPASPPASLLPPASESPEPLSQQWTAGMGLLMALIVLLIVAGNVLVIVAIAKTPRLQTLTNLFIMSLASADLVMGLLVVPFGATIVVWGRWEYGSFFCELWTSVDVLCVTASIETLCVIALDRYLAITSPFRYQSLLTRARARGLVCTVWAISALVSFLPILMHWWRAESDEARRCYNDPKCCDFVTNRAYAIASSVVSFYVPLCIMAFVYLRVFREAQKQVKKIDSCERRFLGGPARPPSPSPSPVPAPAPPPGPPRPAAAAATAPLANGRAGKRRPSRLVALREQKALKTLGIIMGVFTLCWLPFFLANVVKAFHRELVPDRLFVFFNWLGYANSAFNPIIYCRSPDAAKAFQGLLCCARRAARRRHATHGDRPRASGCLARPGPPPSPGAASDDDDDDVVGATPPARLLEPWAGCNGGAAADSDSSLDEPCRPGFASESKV

Beta-1 adrenergic receptor (Homo sapiens), P08588 F383A;R384A
effect of a mutation on the interaction: decreasing interaction
